Source: patent US20200332324

Target: T1, E. coli type II fatty acid synthase ACP (AcpP), P0A6A8
T1 chain: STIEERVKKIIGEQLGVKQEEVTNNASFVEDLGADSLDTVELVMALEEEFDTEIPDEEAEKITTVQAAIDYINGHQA

B1: 4'-phosphopantetheinyl transferase Sfp from Bacillus subtilis (protein)
chain: MKIYGIYMDRPLSQEENERFMSFISPEKREKCRRFYHKEDAHRTLLGDVLVRSVISRQYQLDKSDIRFSTQEYGKPCIPDLPDAHFNISHSGRWVICAFDSQPIGIDIEKTKPISLEIAKRFFSKTEYSDLLAKDKDEQTDYFYHLWSMKESFIKQEGKGLSLPLDSFSVRLHQDGQVSIELPDSHSPCYIKTYEVDPGYKMAVCAAHPDFPEDITMVSYEELL
ACP phosphopantetheinylation with fluorescently labeled CoA (TAMRA-CoA), SDS-PAGE, UV fluorescence: protein extracts from all the recombinant cyanobacteria strains constructed here allowed the conversion of E. coli ACP to its fluorescently labeled derivative
